These results are taken from US7919587 (HYDROGENE LUND, dated 2011).

This data set deals with the molecule itself. Nature of the data set: X-ray crystal structure, homotetramer. Here is the method: Molecular replacement was carried out using the program MOLREP from the CCCP4i-program suite with the coordinates of bovine AQP1 (PDB entry 1J4N) (SEQ ID NO: 38) as the model. Using two copies of the model in the molecular replacement search, a clear solution with a correlation coefficient and R-factor of 34.3% and 53.1% respectively was found. The crystal packing was checked using the program O (30) and there were no overlaps between molecules. Automated model building was carried out using ARP/WARP (31) and the resulting model was docked to the correct sequence using GUISIDE2. The calculated electron density map at this stage was already of very good quality. Water molecules were picked using ARP/WARP. The model was subjected to multiple rounds of refinement in REFMAC5 (29), NCSREF (29) and CNS (32) with manual rebuilding in O between each round. During refinement, NCS restraints between the two molecules in the asymmetric unit (molecule A and B) were used. […] The R-factor and Rfree are 18.1% and 20.8% respectively. The quality of the structure was checked in PROCHECK (33).

B1: SoPIP2;1, plasma membrane aquaporin of spinach (other)
chain: MSKEVSEEAQAHQHGKDYVDPPPAPFFDLGELKLWSFWRAAIAEFIATLLFLYITVATVIGHSKETVVCGSVGLLGIAWAFGGMIFVLVYCTAGISGGHINPAVTFGLFLARKVSLLRALVYMIAQCLGAICGVGLVKAFMKGPYNQFGGGANSVALGYNKGTALGAEIIGTFVLVYTVFSATDPKRSARDSHVPILAPLPIGFAVFMVHLATIPITGTGINPARSFGAAVIFNSNKVWDDQWIFWVGPFIGAAVAAAYHQYVLRAAAIKALGSFRSNPTN
notes: also called PM28A; spinach aquaporin
For the protein B1, the binding result is “binds”.
